From patent US8273855 (JIANGSU NOVAVAC BIO TEC, dated 2012)

T1: Caspr (native, mouse brain) (mouse, UniProt O54991 21-1385)
T1 construct: also called mouse Caspr
T1 sequence (looked up): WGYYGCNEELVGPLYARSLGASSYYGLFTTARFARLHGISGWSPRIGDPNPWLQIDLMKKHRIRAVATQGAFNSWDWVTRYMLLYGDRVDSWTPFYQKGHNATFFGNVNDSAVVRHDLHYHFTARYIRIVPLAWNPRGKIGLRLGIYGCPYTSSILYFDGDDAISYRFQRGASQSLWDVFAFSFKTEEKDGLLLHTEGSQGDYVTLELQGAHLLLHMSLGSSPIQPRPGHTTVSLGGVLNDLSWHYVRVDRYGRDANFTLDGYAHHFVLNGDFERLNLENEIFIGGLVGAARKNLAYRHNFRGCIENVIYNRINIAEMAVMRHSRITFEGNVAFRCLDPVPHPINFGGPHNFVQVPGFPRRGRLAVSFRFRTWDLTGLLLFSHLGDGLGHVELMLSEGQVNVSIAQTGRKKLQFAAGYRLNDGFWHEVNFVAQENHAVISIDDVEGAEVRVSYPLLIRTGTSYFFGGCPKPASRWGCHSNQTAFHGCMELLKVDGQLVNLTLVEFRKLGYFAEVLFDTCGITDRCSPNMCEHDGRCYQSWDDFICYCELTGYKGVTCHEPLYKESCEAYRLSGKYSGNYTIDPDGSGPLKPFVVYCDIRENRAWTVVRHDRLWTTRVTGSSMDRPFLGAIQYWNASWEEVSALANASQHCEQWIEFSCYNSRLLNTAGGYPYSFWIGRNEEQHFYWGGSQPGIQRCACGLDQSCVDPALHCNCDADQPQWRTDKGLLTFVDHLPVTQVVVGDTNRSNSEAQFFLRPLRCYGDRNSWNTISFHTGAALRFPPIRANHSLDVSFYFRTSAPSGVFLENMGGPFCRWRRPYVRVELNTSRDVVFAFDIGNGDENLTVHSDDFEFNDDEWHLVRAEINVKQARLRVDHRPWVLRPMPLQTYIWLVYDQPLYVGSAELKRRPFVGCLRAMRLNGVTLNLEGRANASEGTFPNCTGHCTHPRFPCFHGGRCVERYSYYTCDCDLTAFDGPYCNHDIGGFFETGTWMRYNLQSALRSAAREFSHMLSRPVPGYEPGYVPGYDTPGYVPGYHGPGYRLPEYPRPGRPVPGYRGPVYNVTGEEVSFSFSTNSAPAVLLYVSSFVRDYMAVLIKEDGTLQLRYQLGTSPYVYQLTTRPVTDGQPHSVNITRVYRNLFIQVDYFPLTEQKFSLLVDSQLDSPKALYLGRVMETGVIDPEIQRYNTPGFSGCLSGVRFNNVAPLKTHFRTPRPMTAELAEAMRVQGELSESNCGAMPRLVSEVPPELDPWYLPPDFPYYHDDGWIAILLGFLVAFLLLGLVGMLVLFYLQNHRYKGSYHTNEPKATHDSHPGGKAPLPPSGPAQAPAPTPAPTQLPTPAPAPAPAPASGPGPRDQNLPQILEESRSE

T2: F3 on F3-transfected CHO cells (UniProt P12960 21-1001)
T2 construct: whole, on cells; also called F3-CHO; F3-expressing CHO cells
T2 sequence (looked up): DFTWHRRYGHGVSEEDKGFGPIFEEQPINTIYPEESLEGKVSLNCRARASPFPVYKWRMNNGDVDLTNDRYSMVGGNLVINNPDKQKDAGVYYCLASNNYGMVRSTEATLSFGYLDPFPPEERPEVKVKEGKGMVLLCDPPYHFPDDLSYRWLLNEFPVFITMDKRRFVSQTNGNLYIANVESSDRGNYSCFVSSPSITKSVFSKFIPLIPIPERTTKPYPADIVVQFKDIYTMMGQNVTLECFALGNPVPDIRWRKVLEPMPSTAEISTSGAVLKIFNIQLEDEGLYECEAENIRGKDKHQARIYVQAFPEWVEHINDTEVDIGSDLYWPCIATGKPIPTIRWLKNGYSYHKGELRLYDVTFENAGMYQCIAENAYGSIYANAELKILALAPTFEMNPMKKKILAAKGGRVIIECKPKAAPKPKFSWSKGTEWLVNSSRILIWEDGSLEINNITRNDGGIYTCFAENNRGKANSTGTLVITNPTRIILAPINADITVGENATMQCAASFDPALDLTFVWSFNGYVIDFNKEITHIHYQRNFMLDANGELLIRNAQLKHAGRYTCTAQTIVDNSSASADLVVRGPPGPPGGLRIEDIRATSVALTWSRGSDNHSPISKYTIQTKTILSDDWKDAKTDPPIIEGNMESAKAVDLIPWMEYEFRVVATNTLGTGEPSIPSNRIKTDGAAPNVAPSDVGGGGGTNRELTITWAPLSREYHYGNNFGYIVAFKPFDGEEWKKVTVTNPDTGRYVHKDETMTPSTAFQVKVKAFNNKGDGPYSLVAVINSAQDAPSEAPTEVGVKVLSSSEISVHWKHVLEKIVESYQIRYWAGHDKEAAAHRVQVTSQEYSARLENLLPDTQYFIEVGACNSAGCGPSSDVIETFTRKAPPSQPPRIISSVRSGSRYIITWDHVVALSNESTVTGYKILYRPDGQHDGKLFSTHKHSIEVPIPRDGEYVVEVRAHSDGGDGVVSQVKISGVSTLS

B1: GST-Nogo-N (other, human, UniProt Q9NQC3 186-370, looked up)
chain: DETLFALPAASEPVIRSSAENMDLKEQPGNTISAGQEDFPSVLLETAASLPSLSPLSAASFKEHEYLGNLSTVLPTEGTLQENVSEASKEVSEKAKTLLIDRDLTEFSELEYSEMGSSFSVSPKAESAVIVANPREEIIVKNKDEEEKLVSNNILHNQQELPTALTKLVKEDEVVSSEKAKDSFN
notes: domain: cytoplasmic N-terminal domain of Nogo-A (Nogo-N); also called Nogo-N-GST; Nogo-N-terminal-GST; not shown: glutathione S-transferase (GST) encoded by vector pGEX-KG
B2: CHL1-Fc (Fc fusion, UniProt P70232 26-1083, looked up)
chain: EIPLSVQQVPTIVKQSYVQVAFPFDEYFQIECEAKGNPEPIFSWTKDDKPFDLSDPRIIAANNSGTFKIPNEGHISHFQGKYRCFASNRLGTAVSEEIEFIVPGVPKFPKEKIEPIDVEEGDSIVLPCNPPKGLPPLHIYWMNIELEHIEQDERVYMSQRGDLYFANVEENDSRNDYCCFAAFPKLRTIVQKMPMKLTVNSSNSIKQRKPKLLLPPAQMGSLSAKTVLKGDTLLLECFAEGLPTPHIQWSKPGSELPEGRATIEVHEKTLKIENISYQDRGNYRCTANNLLGKASHDFHVTVEEPPRWKKKPQSAVYSTGSSGILLCEAEGEPQPTIKWRLNGLPIEKHPFPGDFMFPREISFTNLLPNHTGVYQCEASNIHGTILANANIDVIDVIPLIKTKNEENYATVVGYSAFLHCEYFASPKATVVWEVADETHPLEGDRYHTHENGTLEIYRTTEEDAGSYSCWVDNAMGKAVITANLDIRNATKLRVSPKNPRIPKSHVLELYCESQCDSHLKHSLKLSWSKDGEAFEMNGTEDGRIVIDGAYLTISNITAEDQGVYSCSAQTSLDSTSEKTQVTVLGVPDPPGNLHLSERQNRSVRLSWEAGDDHNSKISEYIVEFEGNREEPGKWEELTRVQGEETDVVLSLAPYVRYQFRVTAVNEVGRSHASLPSDHHETPPAAPDKNPQNIRVQASQPKEMIIKWEPLKSMEQNGPGLEYKVSWKPQGAPEEWEEEIVTNHTLRVMTPTVYAPYDVKVQAINQLGSSPDPQPVTLYSGEDYPSTAPVIQRVDVMNSTLVKVTWSSIPKETVHGLLRGYQINWWKTKSLLDGRTHPKEVNILRFSGQRNSGMVPSLDPFSEFHLTVLAYNSKGAGPESEPYIFQTPEGVPEQPSFLKVIKVDKDTATLSWGLPKKLNGNLTGYLLQYQIINDTYELGELNEINVTTPSKSSWHLSNLNSTTKYKFYLRACTSRGCGKPISEEGATLGEGSKGIRKITEGVNVTQKIHPVEVLVPGAEHIVHLMTKNWGDNDSIFQDVIETRGREYAGLYDDISTQGW
notes: Control substrate; also called CHL-Fc; not shown: human IgG Fc

Legend:
[1] = biological target: T1, Caspr (native, mouse brain); experiment: GST pull-down from adult mouse brain membrane extracts
Text: (§1) During myelination, the proper segregation of K^+ channels to juxtaparanodes requires an intact paranodal axoglial junction (Vabnick and Shrager, 1998).

[2] = biological target: T3, Kv1.1 (native, mouse brain extracts) (mouse, UniProt P16388 1-495); experiment: as above
T3 construct: also called Kv1.1 K+ channel alpha-subunit
T3 sequence (P16388 whole entry): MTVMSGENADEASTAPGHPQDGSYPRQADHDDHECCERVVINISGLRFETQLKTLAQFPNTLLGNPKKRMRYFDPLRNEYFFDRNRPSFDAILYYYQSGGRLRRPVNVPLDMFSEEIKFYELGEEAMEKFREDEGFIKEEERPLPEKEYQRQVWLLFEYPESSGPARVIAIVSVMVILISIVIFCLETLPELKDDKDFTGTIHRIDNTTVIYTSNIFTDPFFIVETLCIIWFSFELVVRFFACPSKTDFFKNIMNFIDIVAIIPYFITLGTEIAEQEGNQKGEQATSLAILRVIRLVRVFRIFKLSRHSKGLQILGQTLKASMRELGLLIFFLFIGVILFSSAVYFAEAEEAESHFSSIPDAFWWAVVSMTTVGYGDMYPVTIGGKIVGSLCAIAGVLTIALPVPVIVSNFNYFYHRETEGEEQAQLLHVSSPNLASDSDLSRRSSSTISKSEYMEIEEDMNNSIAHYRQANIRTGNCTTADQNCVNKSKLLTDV
Text: as §1

[3] = biological target: T2, F3 on F3-transfected CHO cells; experiment: cell adhesion assay, F3-CHO cells on coated substrate
[4] = biological target: T4, Notch2 on OLN-93 cells (rat, UniProt Q9QW30 26-2471); experiment: OLN-93 cell adhesion to control substrate
T4 construct: whole, on cells; also called OLN cells
Protocol: (§2) This was carried out as previously described (Xiao et al, 1996). Briefly, 35 mm tissue culture petri dishes (Becton Dickinson) were coated with methanol solubilized nitrocellulose (Lagenaur and Lemon, 1987) and air-dried under a sterile hood. […] Subsequently, the dishes were washed three times with calcium- and magnesium-free Hank's balanced salt solution (CMF-HBSS) and blocked overnight with 2% heat-inactivated fatty acid-free BSA (Sigma) in CMF-HBSS (this blocking step is skipped in the repulsion test). […] After 0.5 hour (in the adhesion test) or 12 hours (in the repulsion test), the dishes were gently washed three times with CMF-HBSS and the cells were fixed with 2.5% glutaldehyde in CMF-HBSS. […] Cells adhering to the various spots were photographed and counted. The results were analyzed by Student's t test with p<0.05 and p<0.01 being considered significant or highly significant difference, respectively.

[5] = biological target: T5, Notch1 on OLN-93 cells (rat, UniProt Q07008 19-2531); experiment: OLN-93 cell adhesion to control substrate
T5 construct: whole, on cells; OLN-93 cells carry both Notch1 and Notch2; also called OLN cells
T5 sequence (Q07008 19-2531): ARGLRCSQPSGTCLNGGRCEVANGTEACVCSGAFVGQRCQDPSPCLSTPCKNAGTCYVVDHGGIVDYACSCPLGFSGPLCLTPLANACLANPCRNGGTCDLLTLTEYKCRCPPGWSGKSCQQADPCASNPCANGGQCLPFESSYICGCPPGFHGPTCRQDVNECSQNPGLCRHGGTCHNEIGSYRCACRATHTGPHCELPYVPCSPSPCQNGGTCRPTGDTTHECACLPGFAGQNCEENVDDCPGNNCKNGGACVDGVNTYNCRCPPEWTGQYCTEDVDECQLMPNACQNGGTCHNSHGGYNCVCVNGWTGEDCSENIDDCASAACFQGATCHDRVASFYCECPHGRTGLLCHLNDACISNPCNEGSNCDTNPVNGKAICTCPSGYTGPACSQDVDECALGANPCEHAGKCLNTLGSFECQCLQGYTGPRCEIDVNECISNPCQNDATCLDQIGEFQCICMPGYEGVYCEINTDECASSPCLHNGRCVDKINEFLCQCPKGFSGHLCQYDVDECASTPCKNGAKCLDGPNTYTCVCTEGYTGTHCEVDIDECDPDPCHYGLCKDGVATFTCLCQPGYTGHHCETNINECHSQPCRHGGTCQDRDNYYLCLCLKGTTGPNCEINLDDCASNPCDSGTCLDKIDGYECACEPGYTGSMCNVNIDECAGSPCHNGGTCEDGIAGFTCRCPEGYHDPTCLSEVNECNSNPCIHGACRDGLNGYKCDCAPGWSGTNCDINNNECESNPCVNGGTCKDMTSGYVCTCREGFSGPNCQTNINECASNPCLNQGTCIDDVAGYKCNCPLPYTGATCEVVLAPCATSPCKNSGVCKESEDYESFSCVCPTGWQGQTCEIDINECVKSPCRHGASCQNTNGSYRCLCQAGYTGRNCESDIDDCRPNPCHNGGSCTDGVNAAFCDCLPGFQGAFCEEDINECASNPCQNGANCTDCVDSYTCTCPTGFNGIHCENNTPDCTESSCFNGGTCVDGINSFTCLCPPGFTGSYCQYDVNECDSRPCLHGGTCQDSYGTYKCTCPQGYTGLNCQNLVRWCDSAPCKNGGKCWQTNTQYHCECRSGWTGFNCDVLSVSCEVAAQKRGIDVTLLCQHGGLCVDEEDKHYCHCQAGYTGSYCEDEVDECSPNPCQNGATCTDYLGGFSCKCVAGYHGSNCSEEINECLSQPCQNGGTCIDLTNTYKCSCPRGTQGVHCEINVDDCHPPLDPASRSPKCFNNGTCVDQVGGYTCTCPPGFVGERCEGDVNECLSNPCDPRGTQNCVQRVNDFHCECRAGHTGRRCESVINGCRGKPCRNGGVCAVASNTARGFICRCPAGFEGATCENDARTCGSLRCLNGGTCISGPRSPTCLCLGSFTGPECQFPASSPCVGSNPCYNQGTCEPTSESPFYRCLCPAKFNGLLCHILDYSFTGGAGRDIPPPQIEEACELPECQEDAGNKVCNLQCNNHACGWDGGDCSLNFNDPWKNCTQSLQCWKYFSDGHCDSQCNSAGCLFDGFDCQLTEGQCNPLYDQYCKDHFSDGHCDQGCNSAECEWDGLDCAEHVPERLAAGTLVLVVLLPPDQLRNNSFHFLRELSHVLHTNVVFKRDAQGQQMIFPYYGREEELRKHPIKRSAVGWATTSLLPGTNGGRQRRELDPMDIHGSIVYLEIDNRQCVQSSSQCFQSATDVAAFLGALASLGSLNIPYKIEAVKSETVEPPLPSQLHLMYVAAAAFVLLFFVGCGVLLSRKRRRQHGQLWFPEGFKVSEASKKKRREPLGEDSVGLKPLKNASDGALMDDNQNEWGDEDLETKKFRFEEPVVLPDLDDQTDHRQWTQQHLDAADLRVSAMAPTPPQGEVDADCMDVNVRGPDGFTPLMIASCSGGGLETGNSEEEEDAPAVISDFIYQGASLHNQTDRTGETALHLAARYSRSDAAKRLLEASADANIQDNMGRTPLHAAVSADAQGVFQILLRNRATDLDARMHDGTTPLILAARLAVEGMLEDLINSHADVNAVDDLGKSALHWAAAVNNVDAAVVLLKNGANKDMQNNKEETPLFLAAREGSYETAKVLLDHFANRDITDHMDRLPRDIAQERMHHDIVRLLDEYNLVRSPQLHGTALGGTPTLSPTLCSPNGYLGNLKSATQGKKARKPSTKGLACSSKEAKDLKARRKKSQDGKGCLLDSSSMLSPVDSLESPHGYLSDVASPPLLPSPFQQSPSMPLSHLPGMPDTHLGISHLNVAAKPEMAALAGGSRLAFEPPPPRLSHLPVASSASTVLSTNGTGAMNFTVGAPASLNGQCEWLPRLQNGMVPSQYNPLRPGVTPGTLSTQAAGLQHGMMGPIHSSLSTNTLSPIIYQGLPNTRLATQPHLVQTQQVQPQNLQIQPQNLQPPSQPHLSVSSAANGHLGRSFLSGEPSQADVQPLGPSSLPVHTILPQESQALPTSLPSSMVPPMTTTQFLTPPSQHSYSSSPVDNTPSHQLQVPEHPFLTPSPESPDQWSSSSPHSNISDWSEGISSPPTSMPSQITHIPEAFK
Protocol: as §2

| Binder | binding result [1] | binding result [2] | binding result [3] | binding result [4] | binding result [5] |
| --- | --- | --- | --- | --- | --- |
| B1 | no binding (tested: 20 µg bead-bound protein) | no binding (tested: 20 µg bead-bound protein) | no binding | – | – |
| B2 | – | – | – | no binding (tested: 2.5 µl of 12 µM CHL1-Fc spotted) | no binding (tested: 2.5 µl of 12 µM CHL1-Fc spotted) |
